The values below come from FireProtDB (doi:10.1016/s0022-2836(03)00043-3).

For orientation: Tm means the temperature at the midpoint of the melting transition.

The labels stand for the following.
B1: Cyclin-dependent kinase inhibitor 2A, P42771 (parent)
chain: MEPAAGSSMEPSADWLATAAARGRVEEVRALLEAGALPNAPNSYGRRPIQVMMMGSARVAELLLLHGAEPNCADPATLTRPVHDAAREGFLDTLVVLHRAGARLDVRDAWGRLPVDLAEELGHRDVARYLRAAAGGTRGSNHARIDAAEGPSDIPD

The series covers variants of B1. As to conditions: Homo sapiens, pH 8.5, CD, Tris 10 mM, reversible: yes, structure 1A5E, whole UniProt chain shown; for Tm / change of melting temperature, mutant - wild type (higher = more stable): Thermal; for ddG of mutation (higher = less stable) / denaturant m value / denaturant midpoint (higher = more stable) / unfolding free energy: 20 °C, Urea.

For A73E, the Tm is 46.2 °C and the “change of melting temperature, mutant - wild type (higher = more stable)” value (shortened to “change of melting temperature, mutant”) stood at 0.2 °C.

For the variant R128E, the Tm was 47.6 °C and the “change of melting temperature, mutant” value is 1.6 °C.

For R124D, the Tm stood at 45.6 °C and the “change of melting temperature, mutant” value was -0.4 °C.

Turning to L37S, the “ddG of mutation (higher = less stable)” value is -0.71 kcal/mol, the denaturant m value was found to be 1.82 kcal/mol/M, the “denaturant midpoint (higher = more stable)” value (“denaturant midpoint” for short) worked out at 2.4 M and the unfolding free energy came to 4.05 kcal/mol. Besides, the Tm is 50.3 °C and the “change of melting temperature, mutant” value worked out at 4.3 °C.

Consider W15D L37S L121R, for which the “ddG of mutation (higher = less stable)” value is -1.42 kcal/mol, the denaturant m value turned out to be 1.56 kcal/mol/M, the “denaturant midpoint” value was 2.8 M and the unfolding free energy came to 4.77 kcal/mol.

For W15D, the “ddG of mutation (higher = less stable)” value is -0.17 kcal/mol, the denaturant m value came out at 1.74 kcal/mol/M, the “denaturant midpoint” value turned out to be 2.1 M and the unfolding free energy is 3.52 kcal/mol.

V95K: the Tm is 47 °C and the “change of melting temperature, mutant” value stood at 1 °C.

Regarding L65K, the Tm is 47.2 °C and the “change of melting temperature, mutant” value was determined as 1.2 °C.

Consider L121R, for which the “ddG of mutation (higher = less stable)” value is -0.66 kcal/mol, the denaturant m value amounted to 1.61 kcal/mol/M, the “denaturant midpoint” value was 2.4 M and the unfolding free energy was determined as 4 kcal/mol. The Tm stood at 50.4 °C and the “change of melting temperature, mutant” value came to 4.4 °C.

Take T18R: the Tm worked out at 45 °C and the “change of melting temperature, mutant” value is -1 °C.
